Where a chain is given by its changes, count along the chain named. Blank lines part the entries; values can stand above or below the binder they belong to.
Tests used:
r murine EphA8 [1] = target: T1, r murine EphA8 (mouse, UniProt O09127); assay: activity ELISA, Fab on coated antigen
T1 construct: recombinant (rEphA8, R&D Systems); also called rEphA8
T1 sequence (receptor, looked up): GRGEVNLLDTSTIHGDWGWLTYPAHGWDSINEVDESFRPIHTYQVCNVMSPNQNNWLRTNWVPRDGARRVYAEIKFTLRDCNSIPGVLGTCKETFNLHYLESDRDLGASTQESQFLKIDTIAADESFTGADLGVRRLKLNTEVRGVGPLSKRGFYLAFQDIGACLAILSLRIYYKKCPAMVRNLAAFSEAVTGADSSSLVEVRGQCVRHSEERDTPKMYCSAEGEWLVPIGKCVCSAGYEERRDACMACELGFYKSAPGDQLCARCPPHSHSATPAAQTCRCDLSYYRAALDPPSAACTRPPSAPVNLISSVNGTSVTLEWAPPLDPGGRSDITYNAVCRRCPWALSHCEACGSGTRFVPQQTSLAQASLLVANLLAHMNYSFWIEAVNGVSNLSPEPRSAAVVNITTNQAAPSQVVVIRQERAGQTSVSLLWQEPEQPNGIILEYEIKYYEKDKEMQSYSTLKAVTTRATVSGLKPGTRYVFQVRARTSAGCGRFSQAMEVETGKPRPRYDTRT
Experimental: (§1) More precisely, Nunc Maxisorp plates were coated with the following rEphA proteins: rhuEphAl-Fc, rmuEphA2-Fc, rmuEphA3-Fc, rmuEphA4-Fc, rratEphA5-Fc, rmuEphA6-Fc, rmuEphA7-Fc, rEphA8; all at 0.5 μg/well (all R&D Systems) rhuEphA2-Fc; 0.5 μg/well, and rhuEphA4-His; 0.1 μg/well (both produced at MedImmune, Inc.). Plates were blocked with 3% BSA+0.1% Tween20 for 2 h. […] Incubation with a goat anti-human kappa horseradish peroxydase (HRP) conjugate then followed. HRP activity was detected with TMB substrate and the reaction quenched with 0.2 M H₂SO₄. Plates were read at 450 nm. Data was analyzed by normalizing Fab concentrations to the corresponding activity data (see FIGS. 10B-10H).

r murine EphA4 [2] = target: T2, r murine EphA4 (mouse, UniProt Q03137); assay: activity ELISA, Fab on coated antigen
T2 construct: recombinant Fc fusion (R&D Systems); also called rmuEphA4-Fc; mEphA4
Experimental: as §1

r murine EphA7 [3] = target: T3, r murine EphA7 (mouse, UniProt Q61772); assay: activity ELISA, Fab on coated antigen
T3 construct: recombinant Fc fusion (R&D Systems); also called rmuEphA7-Fc; mEphA7
T3 sequence (receptor-Fc fusion, looked up): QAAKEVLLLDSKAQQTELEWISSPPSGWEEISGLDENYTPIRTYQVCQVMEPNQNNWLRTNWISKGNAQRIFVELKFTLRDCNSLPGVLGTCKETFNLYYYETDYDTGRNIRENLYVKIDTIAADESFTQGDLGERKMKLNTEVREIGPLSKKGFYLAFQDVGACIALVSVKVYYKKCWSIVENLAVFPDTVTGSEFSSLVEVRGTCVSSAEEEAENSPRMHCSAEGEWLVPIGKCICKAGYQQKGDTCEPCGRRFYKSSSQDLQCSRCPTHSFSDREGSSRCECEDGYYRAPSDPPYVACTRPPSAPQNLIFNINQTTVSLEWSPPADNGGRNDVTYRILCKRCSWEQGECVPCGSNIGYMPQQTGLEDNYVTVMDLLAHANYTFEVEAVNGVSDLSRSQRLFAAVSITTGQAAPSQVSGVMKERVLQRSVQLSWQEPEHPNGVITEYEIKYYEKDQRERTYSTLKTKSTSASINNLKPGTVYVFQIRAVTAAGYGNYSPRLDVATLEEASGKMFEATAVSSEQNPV
Experimental: as §1

[4] = target: T4, human EphA4 (construct not given) (human, UniProt P54764 20-547, limits assumed); assay: capture ELISA, 25 ng/well sheep anti-human Fd
T4 construct: also called EphA4 receptor

mEphA7 = target: T5, mEphA7 (mouse, UniProt Q61772); assay: ELISA, receptor coated on the plate, purified IgG, anti-human kappa-HRP
T5 construct: part of an Fc fusion; also called rmuEphA7-Fc
T5 sequence (receptor-Fc fusion, looked up): T3 sequence (receptor-Fc fusion, looked up)
Experimental: (§2) Secondary screening of IgG constructs of affinity optimized combinatorial variants with additional EphA receptors: With purified IgG constructs of the nine combinatorial variants, additional secondary screening assays were performed using the Activity ELISA (see above) and recombinant EphA receptor proteins. More precisely, Nunc Maxisorp plates were coated with the following rEphA proteins: rhuEphAl-Fc; 0.5 μg/well, rmuEphA2-Fc; 0.5 μg/well, rmuEphA3-Fc: 0.1 μg/well, rmuEphA4-Fc; 0.1 μg/well, rratEphA5-Fc; 0.5 μg/well, rmuEphA6-Fc; 0.5 μg/well, rmuEphA7-Fc; 0.1 μg/well, rEphA8; 0.2 μg/well (all R&D Systems), rhuEphA2-Fc; 0.5 μg/well, and rhuEphA4-His; 0.1 μg/well (both produced at MedImmune, Inc.). Plates were blocked with 3% BSA+0.1% Tween20 for 2 h. […] Incubation with a goat anti-human kappa horseradish peroxydase (HRP) conjugate then followed. HRP activity was detected with TMB substrate and the reaction quenched with 0.2 M H₂SO₄. Plates were read at 450 nm. Data was analyzed by normalizing Fab concentrations to the corresponding activity data (see FIGS. 12A-12J and 14).

mEphA4 = target: T6, mEphA4 (mouse, UniProt Q03137); assay: as above
T6 construct: part of an Fc fusion; also called rmuEphA4-Fc
Experimental: as §2

[5] = target: T7, Human EphA4-His fusion protein (human, UniProt P54764 20-547); assay: BIAcore, IgG immobilized on the sensor chip, EphA4-his as analyte; comment on the sheet: marginal fit
T7 construct: also called rhuEphA4-His; not shown: Histidine tag
Experimental: (§3) FIG. 15A-15B. […] Binding affinities were measured using the BIAcore assay. […] Variant kinetic measurements for human EphA4 and were obtained using BIAcore with immobilized variant antibodies and human EphA4-Fc and EphA4-His as analytes.

r murine EphA4 [6] = target: T2, r murine EphA4; assay: activity ELISA, IgG on coated antigen
Experimental: as §2

r murine EphA7 [7] = target: T3, r murine EphA7; assay: activity ELISA, IgG on coated antigen
Experimental: as §2

[8] = target: T8, Human EphA4-Fc fusion protein (human, UniProt P54764 20-547); assay: BIAcore, IgG immobilized on the sensor chip, EphA4-Fc as analyte; comment on the sheet: marginal kinetic fit
T8 construct: not shown: Fc portion of a human IgG1
Experimental: as §3

[9] = target: T8, Human EphA4-Fc fusion protein; assay: BIAcore, IgG immobilized on the sensor chip, EphA4-Fc as analyte
Experimental: as §3

r murine EphA8 [10] = target: T9, r murine EphA8 (mouse, UniProt O09127); assay: Activity ELISA, receptor coated on the plate, purified IgG, anti-human kappa-HRP, OD 450 nm
T9 construct: recombinant soluble protein coated on the plate; also called mEphA8; rEphA8
T9 sequence (receptor construct, looked up): T1 sequence (receptor, looked up)
Experimental: as §2

mEph A2 = mEph A2 (mouse, UniProt Q03145); assay: ELISA
Chain of mEph A2 (Q03145 26-535 limits assumed): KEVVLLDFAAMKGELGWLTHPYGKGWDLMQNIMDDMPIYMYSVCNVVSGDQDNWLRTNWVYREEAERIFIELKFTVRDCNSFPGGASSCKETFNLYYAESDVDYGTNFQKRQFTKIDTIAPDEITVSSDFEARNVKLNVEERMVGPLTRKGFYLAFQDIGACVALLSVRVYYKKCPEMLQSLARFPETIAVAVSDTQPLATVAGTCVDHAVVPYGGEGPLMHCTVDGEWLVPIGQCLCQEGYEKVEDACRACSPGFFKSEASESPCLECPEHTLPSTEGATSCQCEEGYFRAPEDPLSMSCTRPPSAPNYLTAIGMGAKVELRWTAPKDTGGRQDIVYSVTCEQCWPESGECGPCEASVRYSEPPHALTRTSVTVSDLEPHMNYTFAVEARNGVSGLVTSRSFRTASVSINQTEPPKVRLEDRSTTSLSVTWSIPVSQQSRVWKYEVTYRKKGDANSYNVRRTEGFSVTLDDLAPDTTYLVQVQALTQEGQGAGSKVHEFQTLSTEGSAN

T2 sequence (Q03137 20-547 limits assumed): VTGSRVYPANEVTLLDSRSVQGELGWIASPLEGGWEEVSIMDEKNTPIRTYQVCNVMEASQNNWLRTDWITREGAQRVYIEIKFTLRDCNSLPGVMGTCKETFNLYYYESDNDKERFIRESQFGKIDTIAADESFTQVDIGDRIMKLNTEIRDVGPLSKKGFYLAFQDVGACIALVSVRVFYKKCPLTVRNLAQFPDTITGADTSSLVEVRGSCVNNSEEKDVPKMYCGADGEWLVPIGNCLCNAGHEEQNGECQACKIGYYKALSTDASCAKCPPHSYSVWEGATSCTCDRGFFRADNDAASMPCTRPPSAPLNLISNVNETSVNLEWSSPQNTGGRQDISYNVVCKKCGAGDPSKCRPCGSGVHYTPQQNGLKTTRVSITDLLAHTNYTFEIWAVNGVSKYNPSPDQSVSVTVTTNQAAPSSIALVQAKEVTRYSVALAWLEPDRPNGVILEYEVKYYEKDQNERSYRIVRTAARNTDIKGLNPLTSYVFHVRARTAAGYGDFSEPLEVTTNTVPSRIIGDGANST
T7 sequence (P54764 20-547): as the sequence (Q03137 20-547 limits assumed) above, with A59P, S121N, G124V, Q250R, N251S, S270T, R378K, S406N counted along it
T8 sequence (P54764 20-547): as the sequence (Q03137 20-547 limits assumed) above, with A59P, S121N, G124V, Q250R, N251S, S270T, R378K, S406N counted along it
T6 sequence (Q03137 20-547 limits assumed): as the sequence (Q03137 20-547 limits assumed) above
T4 sequence (P54764 20-547 limits assumed): as the sequence (Q03137 20-547 limits assumed) above, with A59P, S121N, G124V, Q250R, N251S, S270T, R378K, S406N counted along it

B2: 11G6 Fab (affinity optimized CDR3 heavy variant of Fab20) (Fab, V domains shown)
VH: QVQLLQSGAEVKKPGASVKVPCKASGYTFTSYAMSWVRQAPGQGLEWMGWINTNTGNPTYAQGFTGRFVFSLDTSVSTAYLQISSLKAEDTAVYYCARVRFTVYGDGMDVWGQGTLVTVSS
VL: EIVLTQSPATLSVSPGERATLSCRASQSVSSNLAWYQQKPGQAPRLLIYGASTRATGIPDRFSASGSGTDFTLTISRVEPEDFAVYYCQQYGSSWTFGQGTKVEIK
- fold increase in affinity over Fab20 parental background [4]: 1.6 fold

B5: 11H1 Fab (single-change CDR3 heavy variant of Fab20) (Fab, V domains shown)
VH: B2 VH with F101L
VL: B2 VL
notes: also called GEA44 derivative 11H1
- fold increase in affinity over Fab20 parental background [4]: 1.4 fold

B6: 1D3 (antibody, V domains shown)
VH: EVQLLESGGGLVQPGGSLRLSCAASGFTFSPYDMLWVRQAPGKGLEWVSRIGSSGGYTKYADSVKGRFTISRDNSKNTLYLQMNSLRAEDTAVYYCARARSVVVSSDAFDIWGQGTMVTVSS
VL: DIQMTQSPSSVSASVGDRVTITCRASQGISKWLAWYQQKPGKAPKLLIFGASTLQSGVPSKFSGSKSGTDFTLTISSLQPEDSATYYCQQYNDYPLTFGGGTKVEIK
- ELISA O.D. value (mEph A2): 0.316

Next, values leading:

- binding result (r murine EphA8 [1]): binds
- binding result (r murine EphA4 [2]): binds
- binding result (r murine EphA7 [3]): binds
B1: 2C9 Fab (affinity optimized combinatorial variant of Fab20) (Fab, V domains shown)
VH: B2 VH with Y32R
VL: B2 VL with A55P, S93P

- binding result (mEphA7): binds
- binding result (mEphA4): binds
- Kd [5]: 1 nM
- koff [5]: 0.000602 s⁻¹
- kon [5]: 600000 M⁻¹ s⁻¹
- binding result (r murine EphA4 [6]): binds
- binding result (r murine EphA7 [7]): binds
- Kd [8]: 0.023 nM
- koff [8]: 5.41e-05 s⁻¹
- kon [8]: 2.33e+06 M⁻¹ s⁻¹
B3: 1B10 IgG1 (affinity optimized combinatorial variant of mAb GEA44 in human IgG1 format) (antibody, V domains shown)
VH: B2 VH with Y32R
VL: B2 VL with L33P, R54W, S93P

- binding result (mEphA7): binds
- binding result (mEphA4): binds
- Kd [9]: 0.044 nM
- koff [9]: 1.91e-05 s⁻¹
- kon [9]: 434000 M⁻¹ s⁻¹
- binding result (r murine EphA4 [6]): binds
- binding result (r murine EphA7 [7]): binds
- binding result (r murine EphA8 [10]): binds
B4: 2C9 IgG1 (affinity optimized combinatorial variant of mAb GEA44 in human IgG1 format) (antibody, V domains shown)
VH: B2 VH with Y32R
VL: B2 VL with A55P, S93P
